According to PMC5784920, “Inhibition of α-glucosidase, α-amylase, and aldose reductase by potato polyphenolic compounds” (PLoS ONE, 2018):

Legend:
O=C[C@H](O)CO = assay: purified protein; details: NADPH cofactor; no inhibitor; varied substrate taken as glyceraldehyde (D/L not told)
α-glucosidase = test system: T1, α-glucosidase; assay: p-nitrophenol release at […] nm, Lineweaver-Burk; format: biochemical; details: pH 6.5 phosphate; no inhibitor
T1 construct: gene MAL12; introduction speaks of intestinal enzyme

Km (α-glucosidase) | Compound | Km (O=C[C@H](O)CO)
 | aldose reductase (AR) (Homo sapiens) | 3.03 mM
4.44 mM | O=[N+]([O-])c1ccc(O[C@H]2O[C@H](CO)[C@@H](O)[C@H](O)[C@H]2O)cc1 [PNPG] | 
